From PMC7666189

Substrate: O=C(/C=C/c1ccc(O)c(O)c1)O[C@@H]1C[C@](O)(C(=O)O)C[C@@H](O)[C@H]1O
Assay: purified protein
Conditions: 5-CQA as sole substrate (acyl donor and acceptor), 0-30 mM, enzyme from N. benthamiana, optimum pH 6.3 and 39.9 °C, pH and temperature of the Km assay not given

B1: IbICS (Ipomoea batatas) (protein)
chain: CYSAVFGFGDSLTDAGNLIRLEPDGTVPHMYFPPYGETYFDKPTGRCSDGRLIVDLIAQHYGLPLPPPSIPASLEGDKNRLRAGVNFAVVGSRALDAQFYEQRDIFDTVTNVSMTDQLNWFKELLPSLCSSPHDCKELLDGSLFVLGEFGGNDYTHSLLSGKGINVIRPFIPIVTRAIAQAVHELVELGARTVMIPSVLPLGCAASYLTYYPSPNPDDYDELGCLIWVNEMASYHNQLLQQQLAHVRELHPYANIVFADIYNAAMEVYQGPDTYGFSGGALRACCGGGGPYNFNTSAQCGNEGATACDNPSSYVNWDGYHLTEAAYQCITTGLLEGPYTYPRMKNLCRFDSRKTSRVAQI
Km: 3.5 mM
